The values below are quoted from earlier work in paper PMC10609526.

For this series, the target named is DmsA Tat signal peptide (Escherichia coli) (UniProt P18775).
Sequence of UniProt P18775 (P18775 1-45): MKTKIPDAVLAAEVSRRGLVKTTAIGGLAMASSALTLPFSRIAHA

A word on the Kd: it is a measure of binding affinity in units of concentration. As for DmsD (from UniProt P69853), the Kd is 220 nM.
